Data: US20240093191A1, “COMPOSITIONS AND METHODS FOR TREATING DISEASE ASSOCIATED WITH DUX4 OVEREXPRESSION” (RESEARCH INSTITUTE AT NATIONWIDE CHILDREN'S HOSPITAL, priority 2021, published 2024)

Experiments:
[1] = tested on: DUX4-induced muscle toxicity; assay: mi405 constructs (scAAV6) co-injected with AAV.CMV.DUX4-FL in mouse TA, H&E; format: in vivo, mouse (C57BL/6); settings: scAAV6, 5e09 DRP co-injected with 5e09 DRP AAV.CMV.DUX4-FL, 8 weeks
Protocol: AAV Vector Delivery to Mice. (See also FIGS. 15A-B and 32A-B.) For determining bioactivity, 6- to 9-week-old C57BL/6 male and female mice received direct 35 μL IM injections into the TA. Mice received adeno-associated virus scAAV6.CMV.DUX4-FL at 5×10^9 DNase-resistant particles (DRP) co-injected with scAAV6.CMV.eGFP at 1×10^10 DRP, and a contralateral co-injection of scAAV6.CMV.DUX4-FL at 1×10^9 DRP or 5×10^9 DRP and scAAV6.U6.mir-675 at 5×10^10 DRP. To test toxicity of mir-675, the tibialis anterior (TA) was intramuscularly injected with increasing doses of scAAV6.U6.mir-675 at 5×10^10 DRP and 1×10^11 DRP, and injected contralateral TA with saline. To test mi405 toxicity, the TA was intramuscularly injected with 5×10^8 DRP, 5×10^9 DRP and 5×10^10 DRP of scAAV6.U6.mi405F, scAAV6.U6.mi405G or scAAV6.U6.mi405H and injected contralateral TA with saline. To test mi405 inhibition efficiency, the TA was co-injected with scAAV6.CMV.DUX4-FL at 5×10^9 DRP and scAAV6.U6.mi405F, G or H at 5×10^8 DRP, 5×10^9 DRP or 5×10^10 DRP. For this, a contralateral injection of either scAAV6.U6.mi405F, G or H or of scAAV6.CMV.DUX4-FL at 5×10^9 DRP was carried out. For mi405, all injections were compared to scAAV6.U6.mi405. Muscles were harvested at 2, 4 or 8 weeks post-injection. All animal studies were performed according to the NIH Guide for the Care and Use of Laboratory Animals.
Histology. (See also FIGS. 15A-B and 32A-B.) Dissected TA muscles were placed in O.C.T. Compound (Tissue-Tek) and frozen on liquid nitrogen-cooled isopentane. Cryosections were cut at 10 μm and then stained with H&E following standard protocols [Harper et al., Nat Med (2002) 8(3):253-61].
U6.mi405, U6.mi405F, U6.mi405G and U6.mi405H were co-injected using scAAV6 with AAV.CMV.DUX4-FL at equivalent doses (5e09 DNase Resistant Particles (DRP)) in the TA of C57BL/6 mice. This experiment was performed to investigate the efficiency of the four mi405 constructs to eliminate DUX4-induced muscle toxicity in vivo at doses equivalent to that of AAV.CMV.DUX4-FL. Previously, Wallace et al. [Wallace et al, Ann. Neurol. […]

mi405 mature sequence = assay: QPCR of mature mi405 (standard TaqMan cDNA synthesis) in HEK293 cells; format: cell-based, human; settings: 24 h after transfection
Protocol: TaqMan Gene Expression Assay. QRT-PCR was carried out to quantify the expression of pri-mir-675, mir-675-5p and mi405 using TaqMan probes (ThermoFisher Scientific). Experiments were started by eliminating genomic DNA from the RNA preparations, and then cDNA was generated using the High-Capacity cDNA Reverse Transcription Kit (Applied Biosystems) following manufacturer's instructions. Within the same cDNA reaction, 1×RT random hexamer primers were used to generate the cDNA for RPL13A, used as a reference gene, and for pri-mir-675. To generate the cDNA for mir-675, the RT mir-675 reverse primer provided by ThermoFisher Scientific was used. For mi405, the mi405 qPCR protocol was done as it was previously described [Wallace et al., Mol. Ther. Methods Clin. Dev. 8: 121-30 (2018)]. To quantify mir-675 and mi405 levels, RNA was extracted using the total RNA protocol for the mirVana miRNA Isolation Kit (Ambion) from HEK293 cells. cDNA was generated using the High-Capacity cDNA Reverse Transcription Kit (Applied Biosystems) using a mix of random hexamer primers and specific reverse primer for pri-mir-675 and mir-675-5p. For mi405, 200 nM of the stem-loop forming primer (5′-[…]-3′) (SEQ ID NO: 144) was also used for the RT step. A custom TaqMan assay (Applied Biosystems) including 1.5 μM of Forward primer (5′-[…]-3′) (SEQ ID NO: 145), 0.7 μM of Reverse primer (5′-GTGCAGGGTCCGAGGT-3′) (SEQ ID NO: 146), and 0.2 μM of mi405 probe (5′-6FAM-ATACGACGTCCAGGAT-3′) (SEQ ID NO: 147) was then run using the CFX Connect Real Time system apparatus (Bio-Rad). RPL13A (Mm02526700_g1; Applied Biosystems) served as the reference gene. The TaqMan gene expression assay consisted of using the TaqMan Gene Expression Master mix and TaqMan probes purchased from ThermoFisher Scientific. 1× of probe was mixed with 1× of the TaqMan Gene Expression Master mix (ThermoFisher Scientific), and with 20 ng of cDNA. The mir-675- and mi405-specific primers and probes were designed to quantify only the mir-675-5p and mi405 mature sequence (see TaqMan Gene Expression Master mix protocol).
Apart from the effect on the inhibition efficiency of mi405, the effect of the flanking sequences on the expression of the miRNA also was tested. Therefore, the expression of the processed mature mi405 sequences was quantified using the standard and advanced TaqMan cDNA synthesis reaction. In the former reaction, a reverse primer detects the mature mi405 sequence following a stem-loop primer-based small RNA detection principle (ThermoFisher Scientific) (Jung et al., RNA (2013) 19: 1-10). The amplification and quantification steps were then performed using a standard TaqMan probe specific to mi405 that base pairs at the junction between the mi405 mature sequence and the reverse primer sequence (FIG. 6A). […] In the TaqMan advanced cDNA synthesis reaction, the mature sequence is extended through ligation of an adaptor sequence at the 5′ end and through the enzymatic addition of a polyA tail at the 3′ end of the mature mi405 sequence. The amplification and quantification steps were then performed using a TaqMan advanced probe specific to mi405 that normally base pairs with the 3′ end of the mature miRNA and with part of the adaptor sequence. Here, an additional TaqMan advanced probe (embedded probe) that only base pairs with the mature sequence of mi405 (FIG. 6B) was used. As a result, following TaqMan advanced cDNA synthesis reaction, droplet digital PCR (ddPCR) was performed to quantify mi405, mi405F, mi405B, mi405C, mi405G and mi405H expression levels. For this, TaqMan advanced embedded and overlapped mi405 probes (FIG. 6B) were used.

Molecule	efficiency in eliminating DUX4-induced muscle toxicity compared to mi405 [1]	levels of mature mi405 sequence compared to U6.mi405 (mi405 mature sequence)	reduction of mature mi405 sequence expression relative to U6.mi405 (mi405 mature sequence; normalized to RPL13A) [%]
U6.mi405G: mi405 construct with altered flanking sequences (nucleic acid) DNA: ACGCCGCCATCTCTAGGCCCGCGCCGGCCCCCTCGCACAGACTTGTGGGAGAAGCTCGGCTACTCCCCTGCCCCGGTTAATTTGCATATAATATTTCCTAGTAACTATAGAGGCTTAATGTGCGATAAAAGACAGATAATCTGTTCTTTTTAATACTAGCTACATTTTACATGATAGGCTTGGATTTCTATAAGAGATACAAATACTAAATTATTATTTTAAAAAACAGCACAAAAGGAAACTCACCCTAACTGTAAAGTAATTGTGTGTTTTGAGACTATAAATATCCCTTGGAGAAAAGCCTTGTTTGACCGTTTAAACTCGAGTGAGCGATCCAGGATTCAGATCTGGTTTCTGTAAAGCCACAGATGGGAAACCAGATCTGAATCCTGGACTGCCTACTAGAGAATTCTTCGATTCTGCTTTTTT	more efficient than mi405	greater or higher with the difference not being statistically significant	–
U6.mi405H: mi405 construct with altered flanking sequences (nucleic acid) DNA: ACGCCGCCATCTCTAGGCCCGCGCCGGCCCCCTCGCACAGACTTGTGGGAGAAGCTCGGCTACTCCCCTGCCCCGGTTAATTTGCATATAATATTTCCTAGTAACTATAGAGGCTTAATGTGCGATAAAAGACAGATAATCTGTTCTTTTTAATACTAGCTACATTTTACATGATAGGCTTGGATTTCTATAAGAGATACAAATACTAAATTATTATTTTAAAAAACAGCACAAAAGGAAACTCACCCTAACTGTAAAGTAATTGTGTGTTTTGAGACTATAAATATCCCTTGGAGAAAAGCCTTGTTTGACCGTTTAAACTCGAGTGAGCGATCCAGGATTCAGATCTGGTTTCTGTAAAGCCACAGATGGGAAACCAGATCTGAATCCTGGACTGCCTACTAGAGCGCACGCCAGTTTTTT	more efficient than mi405	greater or higher with the difference not being statistically significant	–
U6.mi405F: mi405 with one G at 5' end and 16 mer 3' flanking sequence with single CNNC motif (nucleic acid) DNA: ACGCCGCCATCTCTAGGCCCGCGCCGGCCCCCTCGCACAGACTTGTGGGAGAAGCTCGGCTACTCCCCTGCCCCGGTTAATTTGCATATAATATTTCCTAGTAACTATAGAGGCTTAATGTGCGATAAAAGACAGATAATCTGTTCTTTTTAATACTAGCTACATTTTACATGATAGGCTTGGATTTCTATAAGAGATACAAATACTAAATTATTATTTTAAAAAACAGCACAAAAGGAAACTCACCCTAACTGTAAAGTAATTGTGTGTTTTGAGACTATAAATATCCCTTGGAGAAAAGCCTTGTTTGCTCGAGTGAGCGATCCAGGATTCAGATCTGGTTTCTGTAAAGCCACAGATGGGAAACCAGATCTGAATCCTGGACTGCCTACTAGTAATTCTTCGATTCTGCTTTTTT	no enhanced inhibition efficiency in vivo when compared to mi405	–	85±5
